Assay results taken from patent publication US20150166643A1 (Alexion, published 2015).

Columns and labels:
[1] = target: T1, human factor B (purified, Complement Technology A135) (human, UniProt P00751 26-764); experiment: cell-based or functional assay
[2] = target: T1, human factor B (purified, Complement …); experiment: SPR, captured mAb, soluble factor B (summary table)
From the text: (§1) Binding kinetics of mAbs were further characterized using Biacore's Surface Plasmon Resonance (SPR) technology (GE Healthcare, Piscataway, N.J.). For a detailed description of SPR and its applications in affinity measurement, please see Karlsson and Larsson, Antibody Engineering: Methods and Protocols, Methods in Molecular Biology (2003), 248: 389-415. In one exemplary experiment, TA106 Fab and derivative mAbs were captured on chips of a Biacore 3000 analyzer and samples of human factor B of different concentrations were flowed as the antigen over the surface to model soluble human factor B binding, using protocols recommended by the manufacturer (e.g., in the product brochure #BR-9003-31). All these referenced publications are hereby incorporated by reference in their entirety. […] Fab TA106 (Xoma, Lot#TTA1007, 20 mg/mL) was then flowed over one flow cell, followed by injections of human factor B on both flow cells. Concentrations (factor B) between 3.1-200 nM were run. The surface was regenerated between each cycle. […] The affinities of mAbs, i.e., CLS011, CLS012, and CLS013, were determined using a similar capture approach. In one exemplary experiment, human anti-Fc antibody was amine coupled to two flow cells of a CM5 chip. Each of the TA106-originated mAbs was then flowed over one flow cell, followed by injecting human factor B (3.1-200 nM) on both flow cells. […]

[3] = target: T1, human factor B (purified, Complement …); experiment: BLI (Octet), mAb on anti-human Fc biosensor, 25 nM human factor B
Procedure: (§2) Binding kinetics of TA106-originated mAbs were analyzed using a FortéBio® Octet® biosensor (FortéBio, Inc.) in a similar protocol as described previously. In one exemplary experiment, wild type (CLS011) and the variant S33A (CLS013) mAbs were captured on anti-human Fc biosensors at a concentration of 5 μg/mL, diluted in 1× kinetics buffer (KB, a proprietary formulation containing PBS/Tween). Capture (loading) was carried out for 400 seconds, followed by briefly dipping the biosensors in 1×KB as a wash for 30 seconds. Associations with a titration series of purified human Factor B (Complement Technology, Tyler, Tex.), which concentrations range from 50 to 3 nM (diluted in 1×KB), were carried out for 300 seconds.

[4] = target: T1, human factor B (purified, Complement …); experiment: BLI (Octet), mAb on anti-human Fc biosensor, 50 nM human factor B
Procedure: as §2

[5] = target: T1, human factor B (purified, Complement …); experiment: BLI (Octet), mAb on anti-human Fc biosensor, 12.5 nM human factor B
Procedure: as §2

[6] = target: T1, human factor B (purified, Complement …); experiment: SPR (Biacore 3000), mAb captured by anti-Fc antibody on CM5 chip, soluble human factor B 3.1-200 nM
From the text: as §1

[7] = target: T1, human factor B (purified, Complement …); experiment: SPR (Biacore), CLS011 captured on anti-Fc surface, soluble factor B 3.1-100 nM flowed; Chi2 0.283
From the text: as §1

[8] = target: T1, human factor B (purified, Complement …); experiment: SPR (Biacore), CLS013 captured on anti-Fc surface, soluble factor B 3.1-100 nM flowed; Chi2 1.05
From the text: as §1

[9] = target: T1, human factor B (purified, Complement …); experiment: ELISA, human factor B coated at 0.5 ug/mL, detection with sheep anti-human kappa light chain HRP, abs 450 nm against nM antibody
Procedure: The binding activities of these mAbs towards factor B were analyzed by ELISA using standard protocols. In one exemplary experiment, MaxiSorp™ ELISA plates (Nunc, #439454, Rochester, N.Y.) were coated with 50 μL of human factor B (Complement Technology, A135, 1 mg/mL, lot 14c) at a concentration of 0.5 μg/mL in carbonate coating buffer (0.795 g carbonate+1.46 g bicarbonate+1 mL 1% NaN₃ (final concentration of 0.002%) in 500 mL water, pH 9.6 (lot 02 August 10)). Plates then were covered with plate sealers and incubated at 37±1° C. for one hour. Following coating, wells were emptied of reagent and washed in a BioTek® ELx405 plate washer (BioTek, Winooski, Vt.) for three times with 200 μL wash solution (PBS/0.05% Tween 20) per well. Following washes, wells were blocked with 100 μL of BSA (1% w/v) and incubated for one hour at room temperature. Wells were then washed again as described above. Fifty microliter samples (i.e., TA106 Fab, CLS011 mAb, CLS012 mAb, and CLS013 mAb) were then added to wells and incubated for one hour at room temperature. […] The plate was read on a Benchmark™ microplate reader (Bio-Rad Laboratories, Hercules, Calif.) at 450 nm. Standard curves were plotted with 4 parameter fit with DeltaSoft® 1.6 software, and sample concentrations were determined from the standard curves.

T1 sequence (P00751 26-764): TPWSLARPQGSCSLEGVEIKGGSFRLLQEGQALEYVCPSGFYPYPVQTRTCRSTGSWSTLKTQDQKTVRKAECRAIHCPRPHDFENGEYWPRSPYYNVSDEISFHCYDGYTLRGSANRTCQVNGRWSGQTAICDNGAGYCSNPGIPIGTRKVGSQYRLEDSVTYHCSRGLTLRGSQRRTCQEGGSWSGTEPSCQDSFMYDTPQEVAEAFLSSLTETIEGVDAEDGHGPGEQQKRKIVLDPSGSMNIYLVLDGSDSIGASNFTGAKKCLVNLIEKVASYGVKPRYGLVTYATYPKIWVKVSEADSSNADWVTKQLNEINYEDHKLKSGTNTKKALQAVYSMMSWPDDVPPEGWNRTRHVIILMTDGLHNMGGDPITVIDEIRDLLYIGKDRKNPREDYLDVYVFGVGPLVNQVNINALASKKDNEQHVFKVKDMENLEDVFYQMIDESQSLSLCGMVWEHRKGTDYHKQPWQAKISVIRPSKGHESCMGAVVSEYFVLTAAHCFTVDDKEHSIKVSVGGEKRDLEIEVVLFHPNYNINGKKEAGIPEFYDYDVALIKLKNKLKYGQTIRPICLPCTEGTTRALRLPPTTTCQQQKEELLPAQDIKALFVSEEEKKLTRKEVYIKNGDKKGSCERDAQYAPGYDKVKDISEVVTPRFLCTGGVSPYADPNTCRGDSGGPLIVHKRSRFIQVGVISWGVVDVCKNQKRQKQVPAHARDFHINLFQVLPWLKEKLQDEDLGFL

| IC50 (read off the curve); lysis of rabbit red blood cells in 10% normal human serum [1] [nM] | Kd [2] [nM] | Kd [3] [nM] | koff [3] [s⁻¹] | kon [3] [M⁻¹ s⁻¹] | Kd [4] [nM] | koff [4] [s⁻¹] | kon [4] [M⁻¹ s⁻¹] | Kd [5] [nM] | koff [5] [s⁻¹] | kon [5] [M⁻¹ s⁻¹] | Kd [6] [nM] | koff [7] [s⁻¹] | kon [7] [M⁻¹ s⁻¹] | koff [8] [s⁻¹] | kon [8] [M⁻¹ s⁻¹] | EC50 (read off the curve) [9] [nM] | Binder |
| --- | --- | --- | --- | --- | --- | --- | --- | --- | --- | --- | --- | --- | --- | --- | --- | --- | --- |
| ~50 | 15 | 17.3 | 0.00297 | 171000 | 24.9 | 0.00418 | 168000 | 11.1 | 0.00289 | 261000 | ~15.4 | 0.00253 | 165000 | – | – | – | CLS011 (TA106-derivative full-length IgG2/4 mAb, wild type light chain, expressed in CHO cells) (antibody, V domains shown, N-linked glycans on the N31-S32-S33 motif of CDR1; N-linked glycans on the heavy chain (possibly at N296), Human IgG2/4 full-length mAb; also called CLS011 mAb; TA106-derivative mAb) VH: EVQLVQSGAEVKKPGASVKVSCKASGYSFTDYYMTWVRQAPGQGLEWMGWINPNSGGTKYAQKFQGRVTMTRDTSISTAYMELSRLRSDDTAVYYCARGYYANSAWFAYWGQGTLVTVSS VL: DIVMTQSPDSLAVSLGERATINCKSSQSLLNSSTSKNYLAWYQQKPGQPPKLLIYWASTRESGVPDRFSGSGSGTDFTLTISSLQAEDVAVYYCKQVYNLPWTFGQGTKLEIKR |
| ~20 | 18 | 52.2 | 0.00472 | 90300 | 32.1 | 0.00504 | 157000 | 37.7 | 0.00428 | 114000 | ~17.6 | – | – | 0.00311 | 177000 | ~0.4 | CLS013 (TA106-derivative S33A variant, full-length IgG2/4 mAb, expressed in CHO cells) (antibody, V domains shown, N-linked glycans on the heavy chain, Human IgG2/4 full-length mAb; also called CLS013 mAb; TA106 variant S33A) VH: EVQLVQSGAEVKKPGASVKVSCKASGYSFTDYYMTWVRQAPGQGLEWMGWINPNSGGTKYAQKFQGRVTMTRDTSISTAYMELSRLRSDDTAVYYCARGYYANSAWFAYWGQGTLVTVSS VL: DIVMTQSPDSLAVSLGERATINCKSSQSLLNSATSKNYLAWYQQKPGQPPKLLIYWASTRESGVPDRFSGSGSGTDFTLTISSLQAEDVAVYYCKQVYNLPWTFGQGTKLEIKR |
